Measured values: PMC6116203

Target: R1 pyocin fiber PLES_06171 fragment (residues 323–701) (Pseudomonas aeruginosa LESB58)
Experiment: crystal structure

How did the stoichiometry N turn out when “R1 pyocin fiber PLES_06171 fragment (residues 323–701) (domain or fragment)” was run?
The stoichiometry N was 3.
